Reference: IntAct's records for PubMed 20840750

B1: Cryptochrome-2 (Mus musculus), Q9R194 (parent)
chain: MAAAAVVAATVPAQSMGADGASSVHWFRKGLRLHDNPALLAAVRGARCVRCVYILDPWFAASSSVGINRWRFLLQSLEDLDTSLRKLNSRLFVVRGQPADVFPRLFKEWGVTRLTFEYDSEPFGKERDAAIMKMAKEAGVEVVTENSHTLYDLDRIIELNGQKPPLTYKRFQALISRMELPKKPAVAVSSQQMESCRAEIQENHDDTYGVPSLEELGFPTEGLGPAVWQGGETEALARLDKHLERKAWVANYERPRMNANSLLASPTGLSPYLRFGCLSCRLFYYRLWDLYKKVKRNSTPPLSLFGQLLWREFFYTAATNNPRFDRMEGNPICIQIPWDRNPEALAKWAEGKTGFPWIDAIMTQLRQEGWIHHLARHAVACFLTRGDLWVSWESGVRVFDELLLDADFSVNAGSWMWLSCSAFFQQFFHCYCPVGFGRRTDPSGDYIRRYLPKLKGFPSRYIYEPWNAPESVQKAAKCIIGVDYPRPIVNHAETSRLNIERMKQIYQQLSRYRGLCLLASVPSCVEDLSHPVAEPGSSQAGSISNTGPRALSSGPASPKRKLEAAEEPPGEELTKRARVTEMPTQEPASKDS

Variants of: B1
Conditions: with per2_mouse Per2, O54943
per2_mouse Per2, O54943, sequence (O54943 whole entry): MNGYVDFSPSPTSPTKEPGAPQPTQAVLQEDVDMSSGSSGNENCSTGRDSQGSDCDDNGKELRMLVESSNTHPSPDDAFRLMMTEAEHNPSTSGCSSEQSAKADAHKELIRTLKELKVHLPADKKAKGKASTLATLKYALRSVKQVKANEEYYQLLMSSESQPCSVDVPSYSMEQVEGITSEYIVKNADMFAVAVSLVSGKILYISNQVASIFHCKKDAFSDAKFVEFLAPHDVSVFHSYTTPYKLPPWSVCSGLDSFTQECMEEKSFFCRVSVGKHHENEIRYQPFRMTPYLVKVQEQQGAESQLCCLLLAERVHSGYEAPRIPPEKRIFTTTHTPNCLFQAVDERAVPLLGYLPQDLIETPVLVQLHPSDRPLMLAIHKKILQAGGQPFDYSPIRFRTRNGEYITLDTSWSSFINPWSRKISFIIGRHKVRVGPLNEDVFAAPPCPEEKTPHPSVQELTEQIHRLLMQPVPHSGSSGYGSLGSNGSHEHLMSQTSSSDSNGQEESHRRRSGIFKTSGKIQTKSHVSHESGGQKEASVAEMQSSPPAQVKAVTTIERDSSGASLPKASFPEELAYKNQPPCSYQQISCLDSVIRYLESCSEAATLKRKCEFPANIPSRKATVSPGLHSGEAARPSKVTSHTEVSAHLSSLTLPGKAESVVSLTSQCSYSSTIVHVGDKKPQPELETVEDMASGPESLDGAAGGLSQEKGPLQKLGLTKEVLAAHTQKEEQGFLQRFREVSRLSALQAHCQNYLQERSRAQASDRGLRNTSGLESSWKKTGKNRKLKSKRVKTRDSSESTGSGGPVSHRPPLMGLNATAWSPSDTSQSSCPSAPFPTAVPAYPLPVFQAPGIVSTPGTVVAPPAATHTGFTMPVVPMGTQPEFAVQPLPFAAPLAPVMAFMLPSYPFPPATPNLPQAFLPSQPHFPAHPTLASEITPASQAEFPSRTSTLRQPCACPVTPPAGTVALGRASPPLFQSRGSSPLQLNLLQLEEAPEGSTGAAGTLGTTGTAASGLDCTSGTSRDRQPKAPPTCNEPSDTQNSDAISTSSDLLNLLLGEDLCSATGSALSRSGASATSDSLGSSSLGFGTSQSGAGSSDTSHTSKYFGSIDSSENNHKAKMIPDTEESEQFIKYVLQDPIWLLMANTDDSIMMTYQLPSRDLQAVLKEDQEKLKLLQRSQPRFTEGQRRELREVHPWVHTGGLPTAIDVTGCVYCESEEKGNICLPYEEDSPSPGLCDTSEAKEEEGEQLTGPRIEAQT

Effect of a mutation on the interaction, decreasing interaction:
I499T;R501Q;I505T;L509P
S495G;L497P;I499T;R501Q;K503R;I505T;L509P
R501Q;K503R
L497P;I499T;R501Q;I505T;L509P
S495G;L497P;I499T;K503R;I505T;L509P
I499T;R501Q
I499T;K503R;I505T;L509P
E493G;L497P;K503R;I505T;L509P
